{"source": "patent US20030091594A1", "key": {"[1]": {"target": "CD4-induced (CD4i) monoclonal antibody 17b", "experiment": "SPR (BIACORE 2000), MAb 17b amine-coupled to CM5 chip, gp120 as analyte, 25 C"}, "[2]": {"target": "CD4-induced (CD4i) monoclonal antibody 48d", "experiment": "SPR (BIACORE 2000), MAb 48d amine-coupled to CM5 chip, gp120 as analyte, 25 C"}, "[3]": {"target": "IIIB-V3BaL Env on luciferase reporter virions (HIV-1)", "experiment": "cell-based or functional assay"}, "[4]": {"target": "8x-V3BaL Env (whole Env, on virions or effector cells) (HIV-1)", "experiment": "cell-based or functional assay"}}, "data": [{"substance": "8x gp120 (soluble gp120 of the HIV-1/IIIBx 8x Env clone) (from UniProt P04578 33-511)", "values": [{"measurement": "Kd", "setting": "[1]", "value": 15, "unit": "nM"}, {"measurement": "koff", "setting": "[1]", "value": 0.002, "unit": "s⁻¹"}, {"measurement": "kon", "setting": "[1]", "value": 100000, "unit": "M⁻¹ s⁻¹"}, {"measurement": "Kd", "setting": "[2]", "value": 6, "unit": "nM"}, {"measurement": "koff", "setting": "[2]", "value": 0.001, "unit": "s⁻¹"}, {"measurement": "kon", "setting": "[2]", "value": 200000, "unit": "M⁻¹ s⁻¹"}]}, {"substance": "CD4-induced (CD4i) monoclonal antibody 17b", "values": [{"measurement": "concentration for 50% neutralisation of luciferase reporter virus on GHOST-CCR5 cells", "setting": "[3]", "value": 14, "unit": "ng/mL"}, {"measurement": "concentration for 90% neutralisation of luciferase reporter virus on GHOST-CCR5 cells", "setting": "[3]", "value": 90, "unit": "ng/mL"}, {"measurement": "concentration for 50% neutralisation of luciferase reporter virus on GHOST-CCR5 cells", "setting": "[4]", "value": 2, "unit": "ng/mL"}, {"measurement": "concentration for 90% neutralisation of luciferase reporter virus on GHOST-CCR5 cells", "setting": "[4]", "value": 15, "unit": "ng/mL"}]}, {"substance": "CD4-induced (CD4i) monoclonal antibody 48d", "values": [{"measurement": "concentration for 50% neutralisation of luciferase reporter virus on GHOST-CCR5 cells", "setting": "[3]", "value": "> 5000", "unit": "ng/mL"}, {"measurement": "concentration for 90% neutralisation of luciferase reporter virus on GHOST-CCR5 cells", "setting": "[3]", "value": "> 5000", "unit": "ng/mL"}, {"measurement": "concentration for 50% neutralisation of luciferase reporter virus on GHOST-CCR5 cells", "setting": "[4]", "value": 3, "unit": "ng/mL"}, {"measurement": "concentration for 90% neutralisation of luciferase reporter virus on GHOST-CCR5 cells", "setting": "[4]", "value": "> 200", "unit": "ng/mL"}, {"measurement": "percent neutralisation at 200 ng/ml", "setting": "[4]", "value": 88, "unit": "%"}]}, {"substance": "monoclonal antibody 50.1", "values": [{"measurement": "concentration for 50% neutralisation of reporter virus", "setting": "[3]", "value": 95, "unit": "ng/mL"}, {"measurement": "concentration for 90% neutralisation of reporter virus", "setting": "[3]", "value": 375, "unit": "ng/mL"}, {"measurement": "concentration for 50% neutralisation of reporter virus", "setting": "[4]", "value": 45, "unit": "ng/mL"}, {"measurement": "concentration for 90% neutralisation of reporter virus", "setting": "[4]", "value": 610, "unit": "ng/mL"}]}]}
